# Source: patent US20250076311A1 (Chugai, published 2025)
# Residue numbers refer to the chain shown, from its start.
# T1: cynomolgus monkey FcγRIIa2 extracellular domain, His-tagged (cynomolgus monkey)
# T1 construct: also called cyno FcγRIIa2; cynoFcgRIIa2; not shown: C-terminal His-tag
# T1 chain: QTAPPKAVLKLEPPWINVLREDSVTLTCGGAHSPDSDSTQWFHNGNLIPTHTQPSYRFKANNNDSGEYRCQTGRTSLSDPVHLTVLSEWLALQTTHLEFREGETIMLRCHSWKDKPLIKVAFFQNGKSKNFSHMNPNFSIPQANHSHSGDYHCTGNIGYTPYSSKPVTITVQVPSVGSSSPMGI
# T2: human FcγRIIb extracellular domain, His-tagged (human, UniProt P31994 43-217)
# T2 construct: also called FcgRIIb (human); not shown: C-terminal His-tag
# T2 sequence: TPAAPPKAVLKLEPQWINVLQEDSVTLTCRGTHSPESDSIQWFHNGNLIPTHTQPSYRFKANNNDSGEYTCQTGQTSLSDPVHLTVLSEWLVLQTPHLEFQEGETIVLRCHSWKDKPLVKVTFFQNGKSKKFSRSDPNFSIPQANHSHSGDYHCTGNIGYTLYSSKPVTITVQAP
# T3: cynomolgus monkey FcγRIIa1 extracellular domain with C-terminal His-tag (cynomolgus monkey)
# T3 construct: also called cyno FcgRIIa1; cynoFcγRIIa1; not shown: His-tag added to C-terminus
# T3 chain: T1 chain with T95P, A121T, K127I, S128A, N130K, N135D, Q142R
# T4: cynomolgus monkey FcγRIIa2 extracellular domain with C-terminal His-tag (cynomolgus monkey)
# T4 construct: also called cyno FcgRIIa2; cynoFcγRIIa2; not shown: His-tag added to C-terminus
# T4 chain: T1 chain
# T5: human FcγRIIaH extracellular domain with C-terminal His-tag (human, UniProt P12318 34-217)
# T5 construct: also called human FcgRIIaH; FcγRIIa (type H); not shown: His-tag added to C-terminus
# T5 sequence: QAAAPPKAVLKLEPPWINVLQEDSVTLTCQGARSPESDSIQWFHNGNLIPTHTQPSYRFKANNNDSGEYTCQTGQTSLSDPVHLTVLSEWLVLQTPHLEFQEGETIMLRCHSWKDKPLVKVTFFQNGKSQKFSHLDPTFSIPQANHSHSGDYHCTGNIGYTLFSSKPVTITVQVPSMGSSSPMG
# T6: cynomolgus monkey FcγRIIa3 extracellular domain with C-terminal His-tag (cynomolgus monkey)
# T6 construct: also called cyno FcgRIIa3; cynoFcγRIIa3; not shown: His-tag added to C-terminus
# T6 chain: T1 chain with K127I, N130K, H133P, Q142R
# T7: human FcγRIIaR extracellular domain with C-terminal His-tag (human, UniProt P12318 34-217)
# T7 construct: also called human FcgRIIaR; FcγRIIa (type R); not shown: His-tag added to C-terminus
# T7 chain: T5 sequence with H134R
# T8: human FcγRIIb extracellular domain with C-terminal His-tag (human, UniProt P31994 43-217)
# T8 construct: also called human FcgRIIb; not shown: His-tag added to C-terminus
# T8 sequence: T2 sequence
# T9: cynomolgus monkey FcγRIIIaS extracellular domain with C-terminal His-tag (cynomolgus monkey, UniProt Q8SPW2 21-206 at identity 1.00))
# T9 construct: also called cyno FcγRIIIaS; FcgRIIIaS
# T9 chain: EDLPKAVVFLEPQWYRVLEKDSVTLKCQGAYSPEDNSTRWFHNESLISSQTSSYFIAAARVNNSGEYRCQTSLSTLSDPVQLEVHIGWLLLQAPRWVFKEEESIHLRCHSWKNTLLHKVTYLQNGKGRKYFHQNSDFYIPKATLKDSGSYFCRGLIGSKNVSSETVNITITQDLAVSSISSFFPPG
# T10: cynomolgus monkey FcγRIIb extracellular domain with C-terminal His-tag (cynomolgus monkey)
# T10 construct: also called cyno FcγRIIb; cynoFcγRIIb
# T10 chain: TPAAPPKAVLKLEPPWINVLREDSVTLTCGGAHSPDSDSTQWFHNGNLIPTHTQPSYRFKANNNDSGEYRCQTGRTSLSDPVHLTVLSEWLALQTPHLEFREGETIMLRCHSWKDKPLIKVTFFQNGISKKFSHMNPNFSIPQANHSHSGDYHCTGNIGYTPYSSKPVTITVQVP
# T11: human FcγRIIaR extracellular domain with C-terminal His-tag (human, UniProt P12318 34-217)
# T11 construct: also called human FcγRIIa (type R); FcgRIIaR
# T11 chain: T5 sequence with H134R
# T12: cynomolgus monkey FcγRIIa3 extracellular domain with C-terminal His-tag (cynomolgus monkey)
# T12 construct: also called cyno FcγRIIa3; FcgRIIa3
# T12 chain: T1 chain with K127I, N130K, H133P, Q142R
# T13: human FcγRIIaR extracellular domain with C-terminal His-tag (human, UniProt P12318 34-217)
# T13 construct: also called human FcgRIIaR; FcγRIIa (type R)
# T13 chain: T5 sequence with H134R
# B1: M103205H795-MY006/M103202L889-SK1 (antibody, human IgG1, kappa, name in EU numbering)
# heavy: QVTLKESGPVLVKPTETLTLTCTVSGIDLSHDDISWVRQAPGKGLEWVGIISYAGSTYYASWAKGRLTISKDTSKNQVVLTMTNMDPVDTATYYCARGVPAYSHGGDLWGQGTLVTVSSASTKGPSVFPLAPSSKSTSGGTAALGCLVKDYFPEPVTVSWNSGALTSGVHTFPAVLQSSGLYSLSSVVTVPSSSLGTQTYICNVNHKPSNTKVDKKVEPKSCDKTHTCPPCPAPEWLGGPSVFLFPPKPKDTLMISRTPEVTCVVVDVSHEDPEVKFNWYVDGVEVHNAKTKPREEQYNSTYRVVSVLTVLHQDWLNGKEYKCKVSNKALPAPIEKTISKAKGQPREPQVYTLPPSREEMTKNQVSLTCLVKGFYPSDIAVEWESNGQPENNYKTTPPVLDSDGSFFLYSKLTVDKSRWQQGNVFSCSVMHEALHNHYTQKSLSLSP
# light: DIVMTQSPATLSLSPGERATLSCTSSQSVYHANWLSWFQQKPGQPPKLLIYWASTLAYGVPSRFSGSGSGTDFTLTISSLQPEDAATYYCAGGYGGGRYAFGQGTKVEIKRTVAAPSVFIFPPSDEQLKSGTASVVCLLNNFYPREAKVQWKVDNALQSGNSQESVTEQDSKDSTYSLSSTLTLSKADYEKHKVYACEVTHQGLSSPVTKSFNRGEC
# notes: Substitution introduced into M103205H795-SG1; EU numbering
# B2: M103205H795-MY041/M103202L889-SK1 (antibody, human IgG1, kappa, name in EU numbering)
# heavy: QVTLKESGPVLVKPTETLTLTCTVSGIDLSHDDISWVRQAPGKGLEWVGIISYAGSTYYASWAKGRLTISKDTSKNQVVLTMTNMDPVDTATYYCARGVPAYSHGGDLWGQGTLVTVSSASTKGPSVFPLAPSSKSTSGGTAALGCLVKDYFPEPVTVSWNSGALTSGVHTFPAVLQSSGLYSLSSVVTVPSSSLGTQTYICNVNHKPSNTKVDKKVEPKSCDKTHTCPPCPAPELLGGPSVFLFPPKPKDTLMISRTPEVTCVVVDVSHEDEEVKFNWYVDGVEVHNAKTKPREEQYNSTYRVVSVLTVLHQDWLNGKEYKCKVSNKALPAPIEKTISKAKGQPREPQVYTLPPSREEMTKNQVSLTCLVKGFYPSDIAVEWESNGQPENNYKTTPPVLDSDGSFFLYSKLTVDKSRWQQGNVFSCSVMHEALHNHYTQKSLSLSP
# light: B1 light
# notes: as for B1
# B3: M103205H795-MY169/M103202L889-SK1 (antibody, human IgG1, kappa, name in EU numbering)
# heavy: QVTLKESGPVLVKPTETLTLTCTVSGIDLSHDDISWVRQAPGKGLEWVGIISYAGSTYYASWAKGRLTISKDTSKNQVVLTMTNMDPVDTATYYCARGVPAYSHGGDLWGQGTLVTVSSASTKGPSVFPLAPSSKSTSGGTAALGCLVKDYFPEPVTVSWNSGALTSGVHTFPAVLQSSGLYSLSSVVTVPSSSLGTQTYICNVNHKPSNTKVDKKVEPKSCDKTHTCPPCPAPELLNGPSVFLFPPKPKDTLMISRTPEVTCVVVDVSEEDPEVKFNWYVDGVEVHNAKTKPREEQYNSTYRVVSVLTVLHQDWLNGKEYKCKVSNKALPAPIEKTISKAKGQPREPQVYTLPPSREEMTKNQVSLTCLVKGFYPSDIAVEWESNGQPENNYKTTPDVLDSDGSFFLYSKLTVDKSRWQQGNVFSCSVMHEALHNHYTQKSLSLSP
# light: B1 light
# notes: EU numbering
# B4: M103205H795-MY172/M103202L889-SK1 (antibody, human IgG1, kappa, name in EU numbering)
# heavy: B3 heavy with D398G
# light: B1 light
# notes: EU numbering
# B5: M103205H795-MY177/M103202L889-SK1 (antibody, human IgG1, kappa, name in EU numbering)
# heavy: B3 heavy with D398N
# light: B1 light
# notes: EU numbering
# B6: M103205H795-MY178/M103202L889-SK1 (antibody, human IgG1, kappa, name in EU numbering)
# heavy: B3 heavy with D398Q
# light: B1 light
# notes: EU numbering
# B7: M103205H795-MY210/M103202L889-SK1 (antibody, human IgG1, kappa, name in EU numbering)
# heavy: B3 heavy with E270D, K328T, A332K, D398P
# light: B1 light
# notes: substitutions in EU numbering, introduced into M103205H795-SG1
# B8: M103205H795-MY289/M103202L889-SK1 (antibody, human IgG1, kappa, name in EU numbering)
# heavy: B3 heavy with E270H, A332K, D398M
# light: B1 light
# notes: as for B7
# B9: M103205H795-MY276 (heavy chain) with M103202L889-SK1 (light chain) (antibody, human IgG1, kappa, name in EU numbering)
# heavy: B3 heavy with N238I, E270D, A332K, D398K
# light: B1 light
# notes: Substitutions introduced into M103205H795-SG1; positions in EU numbering
# B10: M103205H795-MY309 (heavy chain) with M103202L889-SK1 (light chain) (antibody, human IgG1, kappa, name in EU numbering)
# heavy: B3 heavy with N238T, A332K, D398M
# light: B1 light
# notes: as for B9
# B11: M103205H795-MY316 (heavy chain) with M103202L889-SK1 (light chain) (antibody, human IgG1, kappa, name in EU numbering)
# heavy: B3 heavy with N238L, Q297L, A332K, D398K
# light: B1 light
# notes: as for B9
# B12: M103205H795-MY525 / M103202L889-SK1 (antibody, human IgG1, kappa, name in EU numbering)
# heavy: B3 heavy with A233T, N238T, S241V, E270D, A332K, D398P
# light: B1 light
# Experiments:
# [1] = molecular target: T1, cynomolgus monkey FcγRIIa2 …; assay: SPR Biacore, antibody captured, FcgR analyte
# [2] = molecular target: T2, human FcγRIIb extracellular domain, …; assay: SPR Biacore, KD(SG1)/KD(variant)
# Method: (§1) The kinetic analysis of interactions between these antibodies and FcγR was carried out using BIACORE® T200 or BIACORE® 4000 (GE Healthcare). HBS-EP+ (GE Healthcare) was used as the running buffer, and the measurement temperature was set to 25° C. […] After the measurement, the antibody captured on the chip was washed off by allowing reaction with 10 mM glycine-HCl, pH1.5 and 25 mM NaOH so that the chip was regenerated and used repeatedly. The sensorgrams obtained as measurement results were analyzed by the 1:1 Langmuir binding model using the BIACORE® Evaluation Software to calculate the binding rate constant ka (L/mol/s) and dissociation rate constant kd (1/s), and the dissociation constant KD (mol/L) was calculated from these values. […] Regarding such interactions, KD values were calculated using the following 1:1 binding model described in BIACORE® T100 Software Handbook BR1006-48 Edition AE.
# [3] = molecular target: T3, cynomolgus monkey FcγRIIa1 …; assay: SPR Biacore, antibody captured, FcgR analyte
# [4] = molecular target: T14, cynomolgus monkey FcγRIIIaS extracellular domain with C-terminal His-tag (cynomolgus monkey, UniProt A3RFZ7 21-206 (rhesus entry)); assay: SPR Biacore, antibody captured, FcgR analyte
# T14 construct: also called cyno FcgRIIIaS; cynoFcγRIIIaS; not shown: His-tag added to C-terminus
# [5] = molecular target: T4, cynomolgus monkey FcγRIIa2 …; assay: SPR Biacore, antibody captured, FcgR analyte
# [6] = molecular target: T5, human FcγRIIaH extracellular domain …; assay: SPR Biacore, antibody captured, FcgR analyte
# [7] = molecular target: T6, cynomolgus monkey FcγRIIa3 …; assay: SPR Biacore, antibody captured, FcgR analyte
# [8] = molecular target: T7, human FcγRIIaR extracellular domain …; assay: SPR Biacore, antibody captured, FcgR analyte
# [9] = molecular target: T8, human FcγRIIb extracellular domain with …; assay: SPR Biacore, antibody captured, FcgR analyte
# [10] = molecular target: T15, human FcγRIIIaV extracellular domain with C-terminal His-tag (human, UniProt P08637 17-208); assay: SPR Biacore, antibody captured, FcgR analyte
# T15 construct: also called human FcgRIIIaV; not shown: His-tag added to C-terminus
# T15 sequence (P08637 17-208 F176V): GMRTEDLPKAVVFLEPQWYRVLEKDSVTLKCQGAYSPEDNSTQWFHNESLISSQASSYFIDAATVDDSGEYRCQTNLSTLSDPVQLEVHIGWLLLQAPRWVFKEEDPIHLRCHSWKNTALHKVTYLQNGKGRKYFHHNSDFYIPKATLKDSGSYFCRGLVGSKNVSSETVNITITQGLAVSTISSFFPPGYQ
# [11] = molecular target: T9, cynomolgus monkey FcγRIIIaS …; assay: SPR; KD of SG1 / KD of variant
# [12] = molecular target: T10, cynomolgus monkey FcγRIIb extracellular …; assay: SPR; KD of SG1 / KD of variant
# [13] = molecular target: T11, human FcγRIIaR extracellular domain …; assay: SPR; KD of SG1 / KD of variant
# [14] = molecular target: T12, cynomolgus monkey FcγRIIa3 …; assay: SPR; KD of SG1 / KD of variant
# [15] = molecular target: T13, human FcγRIIaR extracellular domain …; assay: SPR (Biacore), KD of SG1 divided by KD of variant
# Method: as §1
binder,measurement,setting,value
B1,Kd,[1],1.9 µM
B2,KD fold (SG1 = 1),[2],1.5 fold
B3,Kd,[3],23 µM
same,KD fold (SG1 = 1),[4],0.1 fold
same,Kd,[4],3.5 µM
B4,KD fold (SG1 = 1),[5],1.8 fold
same,Kd,[5],2.8 µM
same,Kd,[6],1.7 µM
same,Kd,[7],1.1 µM
same,KD fold (SG1 = 1),[4],0.17 fold
same,Kd,[4],3.5 µM
B5,KD fold (SG1 = 1),[8],0.1 fold
same,Kd,[8],2 µM
same,Kd,[6],1 µM
same,Kd,[9],1.1 µM
same,KD fold (SG1 = 1),[4],0.12 fold
same,Kd,[4],2.9 µM
B6,KD fold (SG1 = 1),[6],0.6 fold
same,Kd,[9],1.3 µM
same,KD fold (SG1 = 1),[10],0.15 fold
same,KD fold (SG1 = 1),[4],0.17 fold
same,Kd,[4],3 µM
B7,KD fold (SG1 = 1),[5],6.1 fold
same,KD fold (SG1 = 1),[6],0.8 fold
same,KD fold (SG1 = 1),[10],0.03 fold
same,KD fold (SG1 = 1),[4],0.15 fold
B8,KD fold (SG1 = 1),[8],0.3 fold
same,KD fold (SG1 = 1),[6],0.8 fold
same,KD fold (SG1 = 1),[7],1 fold
same,KD fold (SG1 = 1),[9],1.8 fold
same,KD fold (SG1 = 1),[4],0.07 fold
B9,KD fold (SG1 = 1),[11],0.3 fold
same,KD fold (SG1 = 1),[12],5.6 fold
B10,KD fold (SG1 = 1),[11],0.3 fold
same,KD fold (SG1 = 1),[12],2.5 fold
same,KD fold (SG1 = 1),[13],4.2 fold
B11,KD fold (SG1 = 1),[11],0.15 fold
same,KD fold (SG1 = 1),[14],0.8 fold
same,KD fold (SG1 = 1),[12],0.9 fold
same,KD fold (SG1 = 1),[13],1 fold
B12,KD fold (SG1 = 1),[15],6.9 fold
